# Results taken from patent US20240287139.
# Target: the compound of Formula IV
row,Protein,compound-induced DNA cleavage compared to wildtype MtbGyrase
1,MtbGyrase with MtbGyrAP353L (protein) chain 1: TDTTLPPDDSLDRIEPVDIEQEMQRSYIDYAMSVIVGRALPEVRDGLKPVHRRVLYAMFDSGFRPDRSHAKSARSVAETMGNYHPHGDASIYDSLVRMAQPWSLRYPLVDGQGNFGSPGNDPPAAMRYTEARLTPLAMEMLREIDEETVDFIPNYDGRVQEPTVLPSRFPNLLANGSGGIAVGMATNIPPHNLRELADAVFWALENHDADEEETLAAVMGRVKGPDFPTAGLIVGSQGTADAYKTGRGSIRMRGVVEVEEDSRGRTSLVITELPYQVNHDNFITSIAEQVRDGKLAGISNIEDQSSDRVGLRIVIEIKRDAVAKVVINNLYKHTQLQTSFGANMLAIVDGVLRTLRLDQLIRYYVDHQLDVIVRRTTYRLRKANERAHILRGLVKALDALDEVIALIRASETVDIARAGLIELLDIDEIQAQAILDMQLRRLAALERQRIIDDLAKIEAEIADLEDILAKPERQRGIVRDELAEIVDRHGDDRRTRIIAADGDVSDEDLIAREDVVVTITETGYAKRTKTDLYRSQKRGGKGVQGAGLKQDDIVAHFFVCSTHDLILFFTTQGRVYRAKAYDLPEASRTARGQHVANLLAFQPEERIAQVIQIRGYTDAPYLVLATRNGLVKKSKLTDFDSNRSGGIVAVNLRDNDELVGAVLCSAGDDLLLVSANGQSIRFSATDEALRPMGRATSGVQGMRFNIDDRLLSLNVVREGTYLLVATSGGYAKRTAIEEYPVQGRGGKGVLTVMYDRRRGRLVGALIVDDDSELYAVTSGGGVIRTAARQVRKAGRQTKGVRLMNLGEGDTLLAIARNAEESGDDNAVDANGADQTGN chain 2: MAAQKKKAQDEYGAASITILEGLEAVRKRPGMYIGSTGERGLHHLIWEVVDNAVDEAMAGYATTVNVVLLEDGGVEVADDGRGIPVATHASGIPTVDVVMTQLHAGGKFDSDAYAISGGLHGVGVSVVNALSTRLEVEIKRDGYEWSQVYEKSEPLGLKQGAPTKKTGSTVRFWADPAVFETTEYDFETVARRLQEMAFLNKGLTINLTDERVTQDEVVDEVVSDVAEAPKSASERAAESTAPHKVKSRTFHYPGGLVDFVKHINRTKNAIHSSIVDFSGKGTGHEVEIAMQWNAGYSESVHTFANTINTHEGGTHEEGFRSALTSVVNKYAKDRKLLKDKDPNLTGDDIREGLAAVISVKVSEPQFEGQTKTKLGNTEVKSFVQKVCNEQLTHWFEANPTDAKVVVNKAVSSAQARIAARKARELVRRKSATDIGGLPGKLADCRSTDPRKSELYVVEGDSAGGSAKSGRDSMFQAILPLRGKIINVEKARIDRVLKNTEVQAIITALGTGIHDEFDIGKLRYHKIVLMADADVDGQHISTLLLTLLFRFMRPLIENGHVFLAQPPLYKLKWQRSDPEFAYSDRERDGLLEAGLKAGKKINKEDGIQRYKGLGEMDAKELWETTMDPSVRVLRQVTLDDAAAADELFSILMGEDVDARRSFITRNAKDVRFLDV,reduced cleavage (5 to 100-fold)
2,MtbGyrase with MtbGyrAA32V (protein) chain 1: TDTTLPPDDSLDRIEPVDIEQEMQRSYIDYVMSVIVGRALPEVRDGLKPVHRRVLYAMFDSGFRPDRSHAKSARSVAETMGNYHPHGDASIYDSLVRMAQPWSLRYPLVDGQGNFGSPGNDPPAAMRYTEARLTPLAMEMLREIDEETVDFIPNYDGRVQEPTVLPSRFPNLLANGSGGIAVGMATNIPPHNLRELADAVFWALENHDADEEETLAAVMGRVKGPDFPTAGLIVGSQGTADAYKTGRGSIRMRGVVEVEEDSRGRTSLVITELPYQVNHDNFITSIAEQVRDGKLAGISNIEDQSSDRVGLRIVIEIKRDAVAKVVINNLYKHTQLQTSFGANMLAIVDGVPRTLRLDQLIRYYVDHQLDVIVRRTTYRLRKANERAHILRGLVKALDALDEVIALIRASETVDIARAGLIELLDIDEIQAQAILDMQLRRLAALERQRIIDDLAKIEAEIADLEDILAKPERQRGIVRDELAEIVDRHGDDRRTRIIAADGDVSDEDLIAREDVVVTITETGYAKRTKTDLYRSQKRGGKGVQGAGLKQDDIVAHFFVCSTHDLILFFTTQGRVYRAKAYDLPEASRTARGQHVANLLAFQPEERIAQVIQIRGYTDAPYLVLATRNGLVKKSKLTDFDSNRSGGIVAVNLRDNDELVGAVLCSAGDDLLLVSANGQSIRFSATDEALRPMGRATSGVQGMRFNIDDRLLSLNVVREGTYLLVATSGGYAKRTAIEEYPVQGRGGKGVLTVMYDRRRGRLVGALIVDDDSELYAVTSGGGVIRTAARQVRKAGRQTKGVRLMNLGEGDTLLAIARNAEESGDDNAVDANGADQTGN chain 2: MAAQKKKAQDEYGAASITILEGLEAVRKRPGMYIGSTGERGLHHLIWEVVDNAVDEAMAGYATTVNVVLLEDGGVEVADDGRGIPVATHASGIPTVDVVMTQLHAGGKFDSDAYAISGGLHGVGVSVVNALSTRLEVEIKRDGYEWSQVYEKSEPLGLKQGAPTKKTGSTVRFWADPAVFETTEYDFETVARRLQEMAFLNKGLTINLTDERVTQDEVVDEVVSDVAEAPKSASERAAESTAPHKVKSRTFHYPGGLVDFVKHINRTKNAIHSSIVDFSGKGTGHEVEIAMQWNAGYSESVHTFANTINTHEGGTHEEGFRSALTSVVNKYAKDRKLLKDKDPNLTGDDIREGLAAVISVKVSEPQFEGQTKTKLGNTEVKSFVQKVCNEQLTHWFEANPTDAKVVVNKAVSSAQARIAARKARELVRRKSATDIGGLPGKLADCRSTDPRKSELYVVEGDSAGGSAKSGRDSMFQAILPLRGKIINVEKARIDRVLKNTEVQAIITALGTGIHDEFDIGKLRYHKIVLMADADVDGQHISTLLLTLLFRFMRPLIENGHVFLAQPPLYKLKWQRSDPEFAYSDRERDGLLEAGLKAGKKINKEDGIQRYKGLGEMDAKELWETTMDPSVRVLRQVTLDDAAAADELFSILMGEDVDARRSFITRNAKDVRFLDV,reduced cleavage (5 to 100-fold)
3,MtbGyrase with MtbGyrAM33A (protein) chain 1: TDTTLPPDDSLDRIEPVDIEQEMQRSYIDYAASVIVGRALPEVRDGLKPVHRRVLYAMFDSGFRPDRSHAKSARSVAETMGNYHPHGDASIYDSLVRMAQPWSLRYPLVDGQGNFGSPGNDPPAAMRYTEARLTPLAMEMLREIDEETVDFIPNYDGRVQEPTVLPSRFPNLLANGSGGIAVGMATNIPPHNLRELADAVFWALENHDADEEETLAAVMGRVKGPDFPTAGLIVGSQGTADAYKTGRGSIRMRGVVEVEEDSRGRTSLVITELPYQVNHDNFITSIAEQVRDGKLAGISNIEDQSSDRVGLRIVIEIKRDAVAKVVINNLYKHTQLQTSFGANMLAIVDGVPRTLRLDQLIRYYVDHQLDVIVRRTTYRLRKANERAHILRGLVKALDALDEVIALIRASETVDIARAGLIELLDIDEIQAQAILDMQLRRLAALERQRIIDDLAKIEAEIADLEDILAKPERQRGIVRDELAEIVDRHGDDRRTRIIAADGDVSDEDLIAREDVVVTITETGYAKRTKTDLYRSQKRGGKGVQGAGLKQDDIVAHFFVCSTHDLILFFTTQGRVYRAKAYDLPEASRTARGQHVANLLAFQPEERIAQVIQIRGYTDAPYLVLATRNGLVKKSKLTDFDSNRSGGIVAVNLRDNDELVGAVLCSAGDDLLLVSANGQSIRFSATDEALRPMGRATSGVQGMRFNIDDRLLSLNVVREGTYLLVATSGGYAKRTAIEEYPVQGRGGKGVLTVMYDRRRGRLVGALIVDDDSELYAVTSGGGVIRTAARQVRKAGRQTKGVRLMNLGEGDTLLAIARNAEESGDDNAVDANGADQTGN chain 2: MAAQKKKAQDEYGAASITILEGLEAVRKRPGMYIGSTGERGLHHLIWEVVDNAVDEAMAGYATTVNVVLLEDGGVEVADDGRGIPVATHASGIPTVDVVMTQLHAGGKFDSDAYAISGGLHGVGVSVVNALSTRLEVEIKRDGYEWSQVYEKSEPLGLKQGAPTKKTGSTVRFWADPAVFETTEYDFETVARRLQEMAFLNKGLTINLTDERVTQDEVVDEVVSDVAEAPKSASERAAESTAPHKVKSRTFHYPGGLVDFVKHINRTKNAIHSSIVDFSGKGTGHEVEIAMQWNAGYSESVHTFANTINTHEGGTHEEGFRSALTSVVNKYAKDRKLLKDKDPNLTGDDIREGLAAVISVKVSEPQFEGQTKTKLGNTEVKSFVQKVCNEQLTHWFEANPTDAKVVVNKAVSSAQARIAARKARELVRRKSATDIGGLPGKLADCRSTDPRKSELYVVEGDSAGGSAKSGRDSMFQAILPLRGKIINVEKARIDRVLKNTEVQAIITALGTGIHDEFDIGKLRYHKIVLMADADVDGQHISTLLLTLLFRFMRPLIENGHVFLAQPPLYKLKWQRSDPEFAYSDRERDGLLEAGLKAGKKINKEDGIQRYKGLGEMDAKELWETTMDPSVRVLRQVTLDDAAAADELFSILMGEDVDARRSFITRNAKDVRFLDV,reduced cleavage (5 to 100-fold)
4,MtbGyrase with MtbGyrAI36F (protein) chain 1: TDTTLPPDDSLDRIEPVDIEQEMQRSYIDYAMSVFVGRALPEVRDGLKPVHRRVLYAMFDSGFRPDRSHAKSARSVAETMGNYHPHGDASIYDSLVRMAQPWSLRYPLVDGQGNFGSPGNDPPAAMRYTEARLTPLAMEMLREIDEETVDFIPNYDGRVQEPTVLPSRFPNLLANGSGGIAVGMATNIPPHNLRELADAVFWALENHDADEEETLAAVMGRVKGPDFPTAGLIVGSQGTADAYKTGRGSIRMRGVVEVEEDSRGRTSLVITELPYQVNHDNFITSIAEQVRDGKLAGISNIEDQSSDRVGLRIVIEIKRDAVAKVVINNLYKHTQLQTSFGANMLAIVDGVPRTLRLDQLIRYYVDHQLDVIVRRTTYRLRKANERAHILRGLVKALDALDEVIALIRASETVDIARAGLIELLDIDEIQAQAILDMQLRRLAALERQRIIDDLAKIEAEIADLEDILAKPERQRGIVRDELAEIVDRHGDDRRTRIIAADGDVSDEDLIAREDVVVTITETGYAKRTKTDLYRSQKRGGKGVQGAGLKQDDIVAHFFVCSTHDLILFFTTQGRVYRAKAYDLPEASRTARGQHVANLLAFQPEERIAQVIQIRGYTDAPYLVLATRNGLVKKSKLTDFDSNRSGGIVAVNLRDNDELVGAVLCSAGDDLLLVSANGQSIRFSATDEALRPMGRATSGVQGMRFNIDDRLLSLNVVREGTYLLVATSGGYAKRTAIEEYPVQGRGGKGVLTVMYDRRRGRLVGALIVDDDSELYAVTSGGGVIRTAARQVRKAGRQTKGVRLMNLGEGDTLLAIARNAEESGDDNAVDANGADQTGN chain 2: MAAQKKKAQDEYGAASITILEGLEAVRKRPGMYIGSTGERGLHHLIWEVVDNAVDEAMAGYATTVNVVLLEDGGVEVADDGRGIPVATHASGIPTVDVVMTQLHAGGKFDSDAYAISGGLHGVGVSVVNALSTRLEVEIKRDGYEWSQVYEKSEPLGLKQGAPTKKTGSTVRFWADPAVFETTEYDFETVARRLQEMAFLNKGLTINLTDERVTQDEVVDEVVSDVAEAPKSASERAAESTAPHKVKSRTFHYPGGLVDFVKHINRTKNAIHSSIVDFSGKGTGHEVEIAMQWNAGYSESVHTFANTINTHEGGTHEEGFRSALTSVVNKYAKDRKLLKDKDPNLTGDDIREGLAAVISVKVSEPQFEGQTKTKLGNTEVKSFVQKVCNEQLTHWFEANPTDAKVVVNKAVSSAQARIAARKARELVRRKSATDIGGLPGKLADCRSTDPRKSELYVVEGDSAGGSAKSGRDSMFQAILPLRGKIINVEKARIDRVLKNTEVQAIITALGTGIHDEFDIGKLRYHKIVLMADADVDGQHISTLLLTLLFRFMRPLIENGHVFLAQPPLYKLKWQRSDPEFAYSDRERDGLLEAGLKAGKKINKEDGIQRYKGLGEMDAKELWETTMDPSVRVLRQVTLDDAAAADELFSILMGEDVDARRSFITRNAKDVRFLDV,reduced cleavage (5 to 100-fold)
